Results reported in the DeepSol protein solubility set.

Assay: soluble on expression in E. coli; label from the status in PepcDB or PDB records

Sequence | soluble on expression in E. coli
MAPPVLKNEDSDLAVREPAAKKSKKSNGKAQAVKSESSESMFMTEATTDENIYPDATFQSYEEFDQKFNVWKAKNLHPFRVASSESLRTEDGSISEKFKYRYVVFHCARYGVPRMRGEGKRPNQNYLPCSCTAMIRLNFQFHEQCLRLTSLETRHSNHTICKDLYEKMCVKEEKRKHVTPRRTMSGPKSRSSSVATAGNADTSLISDRSINVKKEPSEERADSEHSHGQSPVDLHYEVTRPYEVSPSAPISEITTPFVLPTQKVGLNDLVPTSQFSPMDYQSLQNQIILNQVKLNAMTNNVYNPFGNWPASSLVPTPAPPFLTPTPSQVSPALSSSVDENEAPKIFHSLEAVRPIPLRPSQNSAFYQMLNSSSTSPIIAVTKAEVDSVLGAASRLLNDNHLPEDVLHSRVKQLNGLISQWTHS | not soluble
MGSDKIHHHHHHMTFGLLHRWLTDMGMTISKNTLRNWLTKDKTYLDELVCVLKSIALEKDSIVNCDETWCKVRKYDHYKKCYIGVLVNKARKTAIFFYENGSCGRDVLTDFLGDAELKSIMSDGYNAYVFIGNELKLGRFKDTVHQVCMSHAKNKFVKASNQGGEPTAERFSEILKEFFMRDREYDDAGLTPKERFQERQSLETKELLIELRSLLDSEQSKDSEFRSRYYKEALNYLNRFRKEIFAYLDDGELPIDNNLAERTIRKLTTQRNNSLHYGSDAGAEMAATYHSVIGTVKLLGSSIWNFIGTFFKNIFNGCRDYVNMVPDKITLATSQC | not soluble
MLITVYCVRRDLSEVTFSLQVSPDFELRNFKVLCEAESRVPVEEIQIIHMERLLIEDHCSLGSYGLKDGDIVVLLQKDNVGPRAPGRAPNQPRVDFSGIAVPGTSSSRPQHPGQQQQRTPAAQRSQGLASGEKVAGLQGLGGPALIRSMLLSNPHDLSLLKERNPPLAEALLSGSLETFSQVLMEQQREKALREQERLRLYTADPLDREAQAKIEEEIRQQNIEENMNIAIEEAPESFEQVTMLYINCKVNGHPLKAFVDSGAQMTIMSQACAERCNIMRLVDRRWAGVAKGVGTQRIIGRVHLAQIQIEGDFLQCSFSILEDQPMDMLLGLDMLRRHQCSIDLKKNVLVIGTTGTQTYFLPEGELPLCSRMVSGQDESSDKEITHSVMDSGRKEH | soluble
MENNNSPTNAAEHNQKIDPRNYDDVLSVAASIREQVGEDVARADLGIICGSGLGPIGDTVQDATILPYSKIPGFPTTHVVGHKGNMIFGKLGGKKVVCLQGRFHPYEHNMDLALCTLPVRVMHQLGIKIMIVSNAAGGINAVLRHGDLMLIKDHIFLPALAGFSPLVGCNDPRFGARFVSVHDAYDKQLRQLAIDVGRRSDMTLYEGVYVMSGGPQYESPAEVSLFKTVGADALGMSTCHEVTVARQCGIKVLGFSLITNIANLDADASVEVSHEEVMDIAQQAGERASRFVSDIITEITL | not soluble
MARYTKEDIFRLAKEENVKYIRLQFTDLLGVIKNVEIPVSQLTKALDNKMMFDGSSIEGFVRIEESDMYLYPDLDTWVIFPWTAEKGKVARLICDIYNADGTPFEGDPRNNLKRVLKEMEALGFSDFNLGPEPEFFLFKVDEKGNPTLELNDNGGYFDLAPMDLGENCRRDIVLELEEMGFEIEASHHEVAPGQHEIDFKYANAIRSCDDIQTFKLVVKTIARKHGLHATFMPKPLYGVNGSGMHCNLSLFKNGENVFFDQNGDLQLSDDARHFIAGILKHAPAFTAVANPTVNSYKRLVPGYEAPCYVAWSAQNRSPLVRIPASRGISTRVEVRSVDPAANPYLVMATLLAAGLDGIKNKLTPPAAVDRNIYVMTKEEREEAGIVDLPATLAQALVTLQSNEVISNALGDHLLEHFIEAKEIEWDIFRTQVHQWERDQYMSLY | not soluble
MKSYMTQRLDEYRDGNEDKGRLLVSCPDQPGIVSAVSAFLFEHGANIIESNQYTTDPEGGRFFLRIEFDCAGIREKKSSLQAAFASVAEKFDMTWSLTLASELKRVAIFVSKNLHCLHELIWEWQTGNLMAEIAVVISNHEEARELVERLNIPFHYMKANKDIRAEVEKKQLELLEQYDVDVIVLARYMQILTPDFVSAHPNRIINIHHSFLPAFIGANPYKRAYERGVKLIGATSHYVTNDLDEGPIIEQDIKRVDHRDNAETLKNIGRTIERSVLARAVKWHLEDRVIVHENK | not soluble
